Assay results reported in the supplement of paper PMC12636428.

System: Saccharomyces cerevisiae
Experiment: transcriptional activation domain activity (GFP:mCherry ratio, weighted mean of sorted bins, harmonized to initial dataset scale) (arbitrary fluorescence ratio units); higher = stronger transcriptional activation
Settings: beta-estradiol 1 µM; induction time 4 h
Outline: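 Protein tiles carrying barcodes and fused to an estradiol-inducible synthetic transcription factor were placed at the URA3 locus of yeast diploids with a GFP reporter. Following 4 hours at 30 °C in SC with 1 uM beta-estradiol, cells were sorted into 8 GFP:mCherry bins, barcodes were sequenced, and tiles with fewer than 50 reads were discarded. Activation activity is given as the read-weighted mean of bin median fluorescence, averaged across barcodes and linearly mapped to the initial dataset scale.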

Sequence	transcriptional activation domain activity
PPWVDDCNPFLTDVYYLGSLLKRTFFVVYELTYKDFLFLLTLPVHRTPFLLCN	50900
PPYALGYFGESDHGFCSLKVDLVYSNFMIYYLIVVPRLLVYFYCLLILFFIAM	61600
PPYVVAPPVVCPYSPLIILFYMVTYFFLHCFRGLMGWLQFLALLLQSLMVGIP	28900
PQCYNNWKSLLLLQRYLYFVLPPFPVHFLPIFKILCTYIQLLIWFATISLASL	40700
PQEPQKGEEEGGARGRPRCPRRRGGPKEEAAVPVEAPAVLAAEPVKADEPAAP	30200
PQHCLDLNFMMALLHTGYGMPLEREVKIAKKIKGNELGWCLGASLPLLSKESG	84000
PQPAAGKRKRGRPRTSLPESEPRSEDRRSNTPSAAPQQSAKKSRGRPPKAASK	38800
PQQAQAQKEPKKPKPPPPPAAPPGPPPPPRAPPPPPPPPPPPPGGGGAPPPPA	27600
PQQNIAPPFLNTNSSATDSNPNTNLEDSLFFDHDLLSSSITNTNNGQGSNNGR	24800
PQRLDMIHFPLIYVGCVGVLLFNPFKIFFGSARMYFLNTMWRLAFSGFYHVEF	40000
PQSANITGACTELGEHTDCPIWNLLDARSLFRSCADLLISSWTWWWLAACRYV	44700
PQSEKSFKSAKNAPEKRAEERPRRRKTCARQNMRTNTNAAHTAHATGAITRRI	30100
PQYLHLGYLGHHIAIDPIPHPVGTVYLPLPPDTFPTWCTVTACGWILLPLFPL	29000
PRFLMYCKLGICQLVILRLFTSTFTIVLEMMGLFCPESMSWRFGHFWAVLFNF	63600
PRHIQTIDEKLINDSNYLAFLKFDDLENEKFHSSASSISSPSYSSPSFSSYRN	82100
PRKFICLTNQLTARLGCELDKDHDLFKRTLYAVVQYVLVNHPHHILYNLIALS	46000
PRLFPIASHLFFSLPHAKCCYPYLLLLLFPLLPLPFSLLVFCNLIFFFFFLFF	41300
PRNSWIKWAFLFARYFPLLAGLCGRVIDSIVLYRQPIPIPLNALRIWYICQVL	52500
PRQMCRLYRAGYGLFYNQFCAYIDIAFCMMLCQWNLDILETLRYRLEFGRYLA	71100
PRQPRERKPRAEGEEGEHVEGQQEAGERRRERRPRKPRNKSAGGAGAGAEGAA	17100
PRTASRRAARSARPRRQSSPRPKGRRSNTRPSKRASVSPAKDSDASDGDDERE	19400

Sequence	transcriptional activation domain activity
PRVLHGLELICHIAYLIIILHFIFDWRIDGHMPEWRFYGAREYILFIYSLSIL	31100
PRVVELQKEVIAYNKRLLALNIRDHQVQYAKLNIFYCFGLFWYRVLKLLVLSA	38500
PSASLSFVSFFFFFLFLPLTFSSSYFFFLPFSSFPLFSSLSSTHIWSFLLSPL	39800
PSASTRSAKSGSKGKGSKTTTVGSGSDTEKESAKMASSRSSKHSSSSRKDKSS	29200
PSCCLSFFPDFSFFSVFFSLLVYFPFRALYDLLFVDLLLILFLFILIFFHLFL	33000
PSDSRSRSRSRSASRKRGGAGRGGRSDSSDSEGDNSRRRQVSPARRRQRPARG	38300
PSEEAAAAAVEEEEDVTQPEKPKDPEPTPVQPKATPAPAPTPAKPAVPKSWAS	37300
PSEEKTVQKPDTAVAPPEDKAEPTPDATKPKEKKSRKKSKKAAEEKADGASTS	25300
PSEKPANGAKGKGGKPRGKSGEKDNGAAEFGADPKNADKKSSNESSGAKSRPK	37900
PSFLWWLPLVLFVMATGIFVILSFLLFLIIHGLYYIVPLWQKCGSIHVCVSVL	52700
PSGGLFGNNNASTTTGGIGLFGNNNAAASTGGGLFGKPAASTTTATTGGLFGA	17400
PSGIIVLVICTLGLLCCTIMIILIFYFRYFKPIMSSSPIFCYLQLVGISMAYI	46000
PSGSPLTPSSGKGGRSASLGDAESNKTGEPYGPHSGKAYFEVCVNVGKHAIRL	37500
PSHEYNKTLSALLILLESSAERCFKDLTLLRAAGVTLLGRLFLVFPVFFNPRH	57600
PSHRSVTPFLGQQQQLQSLVPLTPSALFGGANFNQSGNIADSSLSFTFTNSSN	49800
PSIFFLLFICYFVICSIHVDLCYYDSLFNCLFFISSMFSHNYLFFCLCLCYHV	64200
PSIRRCPVSFGDIDMEAELACIQYIREVLLPELVPCAYILLSYILHLLHEVSL	77000
PSLKCVSLTYDELVRIVAQLLQKAFFKRFPSLKERFYSLVLSFLKKAMVPTNK	40500
PSLLVLAAHTLAKHGVLAPMSTLITRFLELPFQIKRPQLYYNLLLHAISRFPS	70100
PSLPPSHPVPSLSLFCFFVFFFAFFFFFFMPIFYYNLLISHFPFCRCWRCLHM	26200
PSLYLVTFFRDSLEMIMISLKYFRYEAHKVVNILPILPDLYTIVRTLVNKCVR	43700

Sequence	transcriptional activation domain activity
PSNQAFWIACLFSSVMYHLLFHLLLLFFSLLFLFFLFFLPSYHVLFHFHHMTG	47700
PSNSLEDSIQQTVKARRKLSARPVLRVRIPNNNFSSNSAIPSEPSSASSTSAN	19300
PSPFPPSLSPPLFPPFPPLPLCPPFLPLFPPSPLSPPFLPLFPPLFLPLSFPP	50200
PSPLPKHQIIREASNVRNITKMKKYDSTFYLHRDHVNYEEYGVDSLLFSYPED	58100
PSPPKCQVPTLYAVIFRILAYLRLLDAFLFHVYILLTLHELWLIIWIPHHHQS	41400
PSPRRRRDEDRPRRGGGGFRWKGEERRDRRERPRSPRPEKRRRSKSPRPEKKK	27500
PSPVLCFRQLCFLVYLIFFNFLLLFCLFAKAEGGIPSCPLQPLDSLYFSLQGF	49400
PSRLTSPSSRRLPSTPGPHPRKSTPRSKPPPSSPARRRSSSTTPTGRPSQPSS	24900
PSRPATPPRSSSAPTGISPNPRTRTCSSASCCASSRSPPSTTSPPTPPAAAAP	51100
PSRTSCATPSPTSSTSAVPSARSSTGPRSRSRSRTASTSSTRASAAPSCSCAR	10500
PSSLVAQGQCAVAGDDVLEALAIRGIDFKLYAGILLLIALVYRLLLYIVLVFK	66100
PSSTARRKLLLIYIDFKFFLAASWFRLCNLTLIGSVWWPIWGYMCWILSGPLF	67300
PSTSPTPSSACAPSAASSTRSPPSTPARGGATSGTCCASACAASTPCVTRYTG	11500
PTAPNSSLPGCDVWDDIVTAAYYVNPCFNFYHLIDFCPYLWDELGFPSLAWGP	72200
PTASTIYEEAESQSSYLDDMFRTSQGGRPVTQNSISSIGQGPLRSSYSMAYDS	51300
PTCALLSLQPVLPSPFGPPSSLLPVTSLFYLSPPSLLCILALSSFLLILPLLF	38800
PTGESLLDAYWKTLLGGITYGDPNGMEALFWDWYQGILPFRMLQLFHLDRVWF	48500
PTGRSSTPTSASSTRARRTRGSASARSSRAAGGGSCSSTCRSPPGRVPRTSVS	36800
PTLLVALLALLIPHILIFIAKKINTIMTLSALHDRLMIRYYKFLVINVLVFFC	39300
PTPSGDPEEEEEGEGEEGGEERGGGGGGGGGKKKNHAGAIAGGVVGGVAVIGL	24600
PTQEVLRFCKRELMHKLWNLLMDDDFLHAYMHGIVVCCGDGVLRRLFPRIFTY	44400

Sequence	transcriptional activation domain activity
PTRRSFSSAWFLCIRYFSLCSNIVVIVDTFGTFSYNVPMYGLSKKLLMWLACV	47900
PTTSFFFWYRLYCSVLLSIGILISIPTLWILPSCFLPNHWKALWVVVLSFLGW	52400
PTTTTTPSSPSTTCRSPTRRRAPRRRSACTGSRTRRGSPQSRRRCCRRTTSTT	28900
PTWGLVLRLGCGIVYIVIFLVYVGLGGVFPGRYTYWGLSADNAGIMVYVLLCV	60400
PVALLSLCFNLCFQTCMHIVSLDLHYHFPNLSLGRSLNILRAFSFFVMIFFIS	88100
PVAPPAASQPHPTANTMQATHAPPSSGRRRGRPKGSKNKPKPEAPTGPEASAG	6790
PVIFRKRPTYLMFISVCLMYIYLFAVVYIRPYKLTRNNHVAIISWITIVIFLF	44400
PVKADEPAAPVEAVKETETAAPVEDAAAPEVAAEAPKEEVKEEKVRSLRTAIS	27300
PVKAIEAPLAEEKSEEKEAEPEKAEEAEEEVTEKPAAKKAKGGKKGAKGKKVK	46800
PVKETETAAVPEVTAEPEAEAAKPAEAPKEEKKEEKKEAKSPKVSRRLSQRVE	58300
PVKKLYLLVQYIQDLGRVCGIPVSPLCCVQALQAKLGPIAQACVSARIWARWR	67400
PVKPASKKPAEKAKEKAKEAPKEKAKAKEPAKAKEDKPKAKPASKKAAAKPAA	34700
PVLEQKRCIRAMEEMIILCKEYIRIARPQISACLISALSFDELRATAFSCWVA	48700
PVNFIFVKLAKVFPLDYLFMVLLIIYFFLVTLTGIITLGVRFFWITLFRIRRG	19400
PVNYLRLTNIGVCDMDDGYDLACHLMLNEPDADSCALLRVLIHRLKECTNLNI	47100
PVPAAAASPVAVPQPAPEQSKPVVKEEKKPEKKVDEERKRKGTKEGQQQQQQQ	16700
PVPAKEPAAVEAPEKEVAEEAKLEDGEIADEAKADDSAEEKPADGAAAAAAAP	34700
PVPFDPPMPVDGLGFLPGDGWMDAMDDIGPLEALDLGFLPVDFWEPHFNRQWN	135000
PVRGIVELPRNSFPDEVLHFTCLTIVCAAIFFLFSSFLFFFCLLHLSCYLFVP	30800
PVVAPKQPRRRAVAGERYERLAQVGEGTYGKVYKARNTGSGALVALKRIRMEQ	68200
